Assay results published in patent publication US20260022171A1.

How the values were obtained:
[1] = target: human CD200R1 on cells (human) (UniProt Q8TD46); assay: cell-based or functional assay
[2] = target: cynomolgus monkey CD200R1 on cells (cynomolgus monkey); assay: flow cytometry, biotinylated antibody on cynomolgus CD4+ T cells (PBMC), streptavidin-PE; concentration not shown
[3] = target: cynomolgus monkey CD200R1 on cells (cynomolgus monkey); assay: flow cytometry, biotinylated antibody on cynomolgus CD8+ T cells (PBMC), streptavidin-PE; concentration not shown
[4] = target: human CD200R1 on cells (human) (UniProt Q8TD46); assay: flow cytometry, blocking: U937 cells stably expressing hu-CD200R1 incubated with the antibody, then with 55 nM huCD200-Fc-Flag, detected with anti-Flag PE (MFI)

hu-CD200-Fc (Fc fusion), sequence (chain): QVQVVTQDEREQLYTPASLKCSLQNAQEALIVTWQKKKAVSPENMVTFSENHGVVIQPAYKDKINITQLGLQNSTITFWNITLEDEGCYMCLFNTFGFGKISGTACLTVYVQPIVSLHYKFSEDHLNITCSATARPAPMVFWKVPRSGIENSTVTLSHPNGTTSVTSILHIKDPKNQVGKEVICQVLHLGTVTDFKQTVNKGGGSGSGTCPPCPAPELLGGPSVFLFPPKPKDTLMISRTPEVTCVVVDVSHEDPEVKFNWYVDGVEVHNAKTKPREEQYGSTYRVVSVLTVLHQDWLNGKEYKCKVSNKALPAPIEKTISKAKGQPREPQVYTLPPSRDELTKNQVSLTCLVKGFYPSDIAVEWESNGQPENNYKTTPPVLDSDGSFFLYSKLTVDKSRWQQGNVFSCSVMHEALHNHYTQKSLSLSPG

Mean:Comp-FL2-A [2] | Mean:Comp-FL2-A [3] | Substance | pDok2 induction, western blot, U937 cells expressing CD200R1 [1] [nM] | IC50 [4] [nM]
566 | 425 | OX108 (commercial anti-CD200R1 antibody) | 33 | 2.8
– | – | hu-CD200-Fc (Fc fusion) | 200 | –
403 | 411 | IgG Control (antibody) | – | –
